Experimental data taken from patent US20190225691A1 (SHANGHAI HENLIUS BIOTECH, published 2019).
Positions count from the first letter of the chain named. Names and notes keep the numbering of the source. Each block holds one binder with its values, some of them ahead of it.

Assays:
human PD-L1 ECD-His [1] = target: T1, human PD-L1 ECD-His (human, UniProt Q9NZQ7 19-238); assay: BLI, ratio of KD to ref-1
T1 construct: extracellular domain; Analyte in all SPR and BLI runs; also called hPD-L1_ECD-His; hPD-L1 ECD-His; not shown: His tag
Method: (§1) Briefly, black 96-well plate was prepared with columns containing 200 μL/well of reagents required for determination of affinity. In general, Octet SA sensors were first placed in wells containing 1×Kinetics Buffer (PBS, 0.1% BSA, 0.02% Tween-20, pH 7.4) for 180 seconds to establish a baseline. […] Sensors were then regenerated by 3×5 second incubations in Regeneration Buffer (10 mM Glycine, pH 1.5) followed by a 5 second incubation in 1×Kinetics Buffer each time. Regeneration was repeated before measurement of each association/dissociation cycle. Sensors were then placed in fresh 1×Kinetics Buffer for 180 seconds to establish a baseline. Association was then measured by incubating the sensors for 5 minutes in wells containing hPD-L1-His followed by transferring to wells containing 1×Kinetics Buffer for 10 minutes to measure dissociation. Kinetics (ka, kd, and […] were measured by global fitting four association/dissociation cycles of data obtained from 1:3 serial dilutions of hPD-L1-His from 38.28 nM to 1.42 nM (one association/dissociation cycle for one concentration) with a 1:1 Langmuir binding model. All data were analyzed with Octet Data Analysis Software v.9.0 and representative of two independent experiments performed in duplicate.
(§2) All the data are representative of two independent experiments performed in duplicate.

human PD-L1 ECD-His [2] = target: T1, human PD-L1 ECD-His; assay: BLI, ratio of KD to parental PL3#7-43
Method: (§3) Briefly, black 96-well plate was prepared with columns containing 200 μL/well of reagents required for determination of affinity. In general, Octet anti-human-Fc sensors were first placed in wells containing 1×Kinetics Buffer (PBS, 0.1% BSA, 0.02% Tween-20, pH 7.4) for 180 seconds to establish a baseline. Sensors were then transferred to wells containing […] anti-PD-L1 variants for 600 seconds to load the anti-human-Fc tips. Sensors were then placed in fresh 1×Kinetics Buffer for 180 seconds to establish a baseline. Association was then measured by incubating the sensors for 3 minutes in wells containing hPD-L1-His followed by transferring to wells containing 1×Kinetics Buffer for 10 minutes to measure dissociation. Sensors were then regenerated by 3X5 second incubations in Regeneration Buffer (10 mM Glycine, pH 1.5) followed by a 5 second incubation in 1×Kinetics Buffer each time. Regeneration was repeated before measurement of each association/dissociation cycle. […] All data were analyzed with Octet Data Analysis Software v.9.0 and representative of two independent experiments performed in duplicate.
as §2

human PD-L1 ECD-His [3] = target: T1, human PD-L1 ECD-His; assay: BLI Octet RED96, biotinylated antibody on SA sensor, hPD-L1-His analyte, 1:1 fit
Method: as §1, §2

human PD-L1 ECD-His [4] = target: T1, human PD-L1 ECD-His; assay: BLI Octet RED96, antibody on AHC anti-human-Fc sensor, hPD-L1-His analyte, 1:1 fit
Method: as §3, §2

[5] = target: T2, human PD-L1 on cells (PHA-activated human T cells); PD-L1-transfected CHO-S cells; A375 melanoma cells; … (human, UniProt Q9NZQ7 19-290); assay: flow cytometry on PD-L1 transfected CHO-S cells, anti-human IgG Fc-FITC, MFI
T2 construct: whole, on cells; also called PD-L1 expressing T cells; PD-L1 expressing CHO-S cells
Method: Binding of tested de-glycosylated variants was assessed by incubating the PD-L1 expressing CHO-S cells (2E5 cells/well) with the serial-diluted antibodies in FACS buffer (PBS with 1% FBS) at 4° C. for 30 minutes. These cells were washed with flow buffer and then stained with anti-human IgG Fc-FITC (1:500×) at 4° C. for 30 minutes to detect antibody binding on the cell surface. Flow cytometric analyses were performed using CytoFlex (Beckman Coulter Inc.).

[6] = target: T3, mouse PD-L1 on B16-F10 melanoma cells (mouse, UniProt Q9EP73 19-290); assay: flow cytometry on mouse PD-L1 expressing B16-F10 melanoma cells, FITC-labeled anti-human IgG Fcγ, MFI
T3 construct: whole, on cells

[7] = target: T2, human PD-L1 on cells (PHA-activated …); assay: flow cytometry on A375 human melanoma cells, biotin-labeled anti-human IgG Fcγ and streptavidin-PE, MFI
[8] = target: T2, human PD-L1 on cells (PHA-activated …); assay: flow cytometry on NCI-H292 human NSCLC cells, biotin-labeled anti-human IgG Fcγ and streptavidin-PE, MFI
[9] = target: T2, human PD-L1 on cells (PHA-activated …); assay: flow cytometry on PHA-activated human T cells, biotin-labeled anti-human IgG Fcγ and streptavidin-PE, MFI
[10] = target: T4, recombinant cynomolgus monkey PD-L1_ECD Fc-fusion protein (Sino Biological Inc.) (cynomolgus monkey, UniProt G7PSE7 19-238); assay: ELISA: cynomolgus monkey PD-L1_ECD/Fc coated (9 ng/well), peroxidase-labeled goat anti-human IgG F(ab)'2, TMB, OD450
T4 construct: Bought
Method: The recombinant cynomolgus monkey PD-L1_ECD Fc-fusion proteins were purchased from Sino Biological Inc. PD-L1_ECD/Fc (9 ng per well) were immobilized onto 96-well assay plat by incubating overnight at 4° C. Nonspecific binding sites were blocked using 5% skim milk in PBS for one hour at room temperature. After washing plates three times with PBST, indicated concentrations of anti-PD-L1 antibodies and HLX01 (negative control) were incubated with the immobilized proteins for one hour at room temperature. The plates were washed three times with PBST and then incubated for one hour at room temperature with peroxidase-labeled goat anti-human IgG F(ab)′2 (Jackson ImmunoResearch Laboratories) diluted 1/10,000 in PBS. After washing, plates were developed using TMB (eBioscience). The absorbance was read at the wavelength of 450 nm by Varioskan LUX microplate reader (Thermo Scientific).
HLX01 (anti-CD20 mAb) was used as the negative control.

human PD-L1 ECD-His [11] = target: T1, human PD-L1 ECD-His; assay: Fab ELISA screen after panning on hPD-L1-His; coated antigen not named

T2 sequence (Q9NZQ7 19-290): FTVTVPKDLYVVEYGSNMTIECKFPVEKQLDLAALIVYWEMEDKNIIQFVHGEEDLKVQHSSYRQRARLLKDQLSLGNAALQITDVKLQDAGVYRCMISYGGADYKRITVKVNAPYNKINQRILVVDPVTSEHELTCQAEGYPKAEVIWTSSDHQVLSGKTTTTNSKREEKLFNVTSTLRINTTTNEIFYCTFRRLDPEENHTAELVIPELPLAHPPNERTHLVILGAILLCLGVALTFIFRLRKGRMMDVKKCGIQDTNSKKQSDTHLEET
T1 sequence (Q9NZQ7 19-238): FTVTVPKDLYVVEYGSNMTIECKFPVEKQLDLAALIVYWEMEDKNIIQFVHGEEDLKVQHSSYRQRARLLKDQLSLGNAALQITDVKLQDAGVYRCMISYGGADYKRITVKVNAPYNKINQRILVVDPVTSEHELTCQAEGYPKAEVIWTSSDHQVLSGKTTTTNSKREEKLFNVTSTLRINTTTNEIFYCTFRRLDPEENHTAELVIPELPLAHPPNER
T3 sequence (Q9EP73 19-290): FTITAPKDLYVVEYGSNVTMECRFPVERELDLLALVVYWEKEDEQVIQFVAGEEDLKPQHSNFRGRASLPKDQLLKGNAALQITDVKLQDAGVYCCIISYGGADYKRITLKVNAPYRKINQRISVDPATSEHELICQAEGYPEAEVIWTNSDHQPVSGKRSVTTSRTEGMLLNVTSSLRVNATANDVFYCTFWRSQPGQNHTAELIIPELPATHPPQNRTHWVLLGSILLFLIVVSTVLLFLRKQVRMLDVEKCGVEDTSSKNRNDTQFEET
T4 sequence (G7PSE7 entry or part of it limits assumed): as the sequence (Q9NZQ7 19-238) above, with A33T, A34S, S62N, R68Q, Q82R, F173L, T185A, T192I, H215L counted along it

Improvement over ref-1 (human PD-L1 ECD-His [1]): 7.86 fold
Fold Difference (against parental variant) (human PD-L1 ECD-His [2]): 1 fold
Kd (human PD-L1 ECD-His [3]): 0.313 nM
koff (human PD-L1 ECD-His [3]): 0.000103 s⁻¹
kon (human PD-L1 ECD-His [3]): 330000 M⁻¹ s⁻¹
Kd (human PD-L1 ECD-His [4]): 0.345 nM
koff (human PD-L1 ECD-His [4]): 0.000212 s⁻¹
kon (human PD-L1 ECD-His [4]): 628000 M⁻¹ s⁻¹
EC50 (read off the curve) [5]: ~200 ng/mL
EC50 (read off the curve) [6]: ~5 ng/mL
EC50 (read off the curve) [7]: ~2 ng/mL
EC50 (read off the curve) [8]: ~10 ng/mL
EC50 (read off the curve) [9]: ~8 ng/mL
EC50 (read off the curve) [10]: ~40 ng/mL
B1: PL3#7-43 mtIgG1 (antibody, V domains shown)
VH: QVQLVQSGAEVKKPGSSVKVSCKASGGTFSSYPISWVRQAPGQGLEWMGRIIPILGIANYAQKFQGRVTITADKSTSTAYMELSSLRSEDTAVYYCARSRPGYAFGAFDIWGQGTLVTVSS
VL: QSVVTQPPPVSGAPGQRVTISCTGSSSNVGAGYDVHWYQQLPGTAPKLLIYGNSNRSSGVPDRFSGSKSGTSASLAITGLQAEDEADYYCQTYDSSGSARVVFGGGTKLTVLG
modifications: Antibody was biotinylated (NHS-PEG4-biotin, sites not specified) for the Octet assay of Table 11.
notes: N297A mutant human IgG1; also called PL3#7-43 parental mtIgG1

binding result (human PD-L1 ECD-His [11]): binds
B2: PL3#7-19 Fab (Fab, V domains shown)
VH: B1 VH with P101D, I110V
VL: QSVVTQPPPVSGAPGQRVTISCTGSSSNIGGGYDVHWYQQLPGTAPKLLIYGNSTRPSGVPDRFSGSKSGTSASLAITGLQAEDEADYYCQTYDSSLSATVVFGGGTKLTVL

binding result (human PD-L1 ECD-His [11]): binds
B3: PL3#7-54 Fab (Fab, V domains shown)
VH: B1 VH with N59D
VL: B2 VL with G31Q, G52A, T55N, T100R

binding result (human PD-L1 ECD-His [11]): binds
B4: PL3#7-43 Fab (Fab, V domains shown)
VH: B1 VH
VL: B2 VL with I29V, G31A, T55N, P57S, L97G, T100R
